For experiment [1], the target named is T1, FcgRIIa type R extracellular domain with C-terminal His tag (human, UniProt P12318 34-217).
T1 construct: extracellular domain; also called FcgRIIaR; FcgRIIa R; not shown: His tag at the C terminus
T1 sequence (looked up): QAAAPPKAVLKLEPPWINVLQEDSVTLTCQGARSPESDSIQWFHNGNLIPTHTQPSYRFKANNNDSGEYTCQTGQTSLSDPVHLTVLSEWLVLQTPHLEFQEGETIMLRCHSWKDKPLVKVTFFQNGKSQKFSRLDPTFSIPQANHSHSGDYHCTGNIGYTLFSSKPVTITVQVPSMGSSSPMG
As to the kind of experiment: SPR (Biacore), antibody captured on chip, soluble FcgR as analyte, kinetic 1:1 fit.

Experiment [2] has as its target T1, FcgRIIa type R extracellular domain …. Described as above. The procedure: The variants were assessed for the binding activity to FcgR Ia, FcgR IIaR, FcgR IIaH, and FcgRIIb according to the method described in Reference Example 8.
(§1) Analysis of interaction between obj ective antibody and the FcγR was carried out using Biacore T100 (GE Healthcare), Biacore T200, Biacore A100, and Biacore 4000. HBS-EP+ (GE Healthcare) was used as the running buffer, and the measurement temperature was set to 25° C. Chips produced by immobilizing the antigen peptide by the amine coupling method to a Series S sensor Chip CM5 (GE Healthcare), chips produced by allowing preliminarily biotinylated antigen peptides to interact with and immobilize onto a Series S Sensor Chip SA (certified) (GE Healthcare), chips produced by immobilizing Protein L (ACTIGEN, BioVision) to Series S Sencor Chip CM5 (GE Healthcare), or chips produced by immobilizing Protein A/G (Thermo Scientific) to Series S Sencor Chip CM5 (GE Healthcare) were used. Antibodies of interest were captured onto these chips, and allowed to interact to each FcγR diluted with running buffer. To regenerate and repeatedly use the chip, the antibodies captured onto the chip were washed off by reacting 10 mM glycine-HCl, pH 1.5.
The source holds these as a separate data set.

The target of experiment [3] is T2, FcgRIIa type H extracellular domain with C-terminal His tag (human, UniProt P12318 34-217).
T2 construct: extracellular domain; also called FcgRIIaH; FcgRIIa H; not shown: His tag at the C terminus
T2 sequence (looked up): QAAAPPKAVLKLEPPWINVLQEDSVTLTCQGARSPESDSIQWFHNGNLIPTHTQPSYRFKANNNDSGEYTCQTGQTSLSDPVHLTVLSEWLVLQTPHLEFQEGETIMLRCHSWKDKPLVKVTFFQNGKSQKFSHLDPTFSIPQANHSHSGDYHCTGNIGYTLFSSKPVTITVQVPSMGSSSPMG
In words: SPR (Biacore), antibody captured on chip, soluble FcgR as analyte; too weak for kinetics, KD from steady-state 1:1 equation. As to the method:
(§2) KD can be calculated by substituting the values of Rmax, RI, and C into this equation. The values of RI and C can be determined from the sensorgram of the measurement results and measurement conditions. Rmax was calculated according to the following method.

In experiment [4] the target is T3, FcgRIIIa type V extracellular domain with C-terminal His tag (human, UniProt P08637 17-208).
T3 construct: extracellular domain; also called FcgRIIIaV; FcgRIIIa V; not shown: His tag at the C terminus
T3 sequence (P08637 17-208 F176V): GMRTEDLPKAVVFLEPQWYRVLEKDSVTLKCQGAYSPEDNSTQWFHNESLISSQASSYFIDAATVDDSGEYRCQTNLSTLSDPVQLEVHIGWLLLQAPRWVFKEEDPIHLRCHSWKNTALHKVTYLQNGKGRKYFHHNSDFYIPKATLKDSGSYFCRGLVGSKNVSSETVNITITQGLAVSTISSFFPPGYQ
The description is as above. The procedure: as §2

Experiment [5] addresses T2, FcgRIIa type H extracellular domain …. The experiment is described as above. The procedure:
as §2
The source holds these as a separate data set.

For experiment [6], the target named is T3, FcgRIIIa type V extracellular domain …. The description is as above. The procedure:
as §2
The source holds these as a separate data set.

The target of experiment [7] is T4, FcgRIIaR (human, UniProt P12318 34-217).
T4 construct: extracellular domain; R131 allotype; also called FcγRIIa R; FcgRIIa type R; not shown: C-terminal His tag
T4 sequence (looked up): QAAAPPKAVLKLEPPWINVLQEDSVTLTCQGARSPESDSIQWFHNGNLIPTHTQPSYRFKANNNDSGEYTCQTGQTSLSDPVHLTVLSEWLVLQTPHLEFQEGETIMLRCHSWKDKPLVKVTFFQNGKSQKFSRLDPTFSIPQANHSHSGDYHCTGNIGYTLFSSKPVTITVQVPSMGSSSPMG
As to the kind of experiment: SPR (Biacore), antibody captured on chip, FcgR as analyte. As to the method: (§3) The variants described above were assessed for their binding to FcgR according to the method described in Reference Example 8.
as §1
Background: SPR reads the build-up and loss of mass on a sensor chip optically.

The target of experiment [8] is T5, FcgRIIaH (human, UniProt P12318 34-217).
T5 construct: extracellular domain; H131 allotype; also called FcγRIIa H; FcgRIIa type H; not shown: C-terminal His tag
T5 sequence (looked up): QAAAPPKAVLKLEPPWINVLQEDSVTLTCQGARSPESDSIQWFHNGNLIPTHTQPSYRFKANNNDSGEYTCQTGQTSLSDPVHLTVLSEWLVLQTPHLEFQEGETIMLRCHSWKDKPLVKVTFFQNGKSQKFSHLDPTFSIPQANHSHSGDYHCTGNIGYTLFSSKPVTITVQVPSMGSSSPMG
The description is as above. The procedure:
as §3, §1

Experiment [9] has as its target T6, FcgRIIb (human, UniProt P31994 43-217).
T6 construct: extracellular domain; also called FcγRIIb; CD32B; not shown: C-terminal His tag
T6 sequence (looked up): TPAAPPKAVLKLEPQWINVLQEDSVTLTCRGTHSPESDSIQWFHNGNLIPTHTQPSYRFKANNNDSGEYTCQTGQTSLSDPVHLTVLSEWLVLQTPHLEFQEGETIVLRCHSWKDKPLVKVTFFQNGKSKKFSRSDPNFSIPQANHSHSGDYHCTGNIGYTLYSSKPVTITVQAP
The experiment is described as above. The procedure:
as §3, §1

Experiment [10] concerns the target T7, FcgRIIIaF (human, UniProt P08637 17-208).
T7 construct: extracellular domain; F158 allotype; also called FcγRIIIa F; not shown: C-terminal His tag
Described as above. As to the method:
as §3, §1

Experiment [11] concerns the target T8, FcgRIIIaV (human, UniProt P08637 17-208).
T8 construct: extracellular domain; V158 allotype; also called FcγRIIIa V; not shown: C-terminal His tag
The experiment is described as above. As to the method:
as §3, §1

Experiment [12] concerns the target T4, FcgRIIaR. As to the kind of experiment: SPR (Biacore); KD of H240-Kn120/H240-Hl068/L73-k0 divided by KD of the sample. The procedure: as §3, §1
Experiment [13] deals with T5, FcgRIIaH. The description is as above. As to the method: as §3, §1
Experiment [14] concerns the target T6, FcgRIIb. The description is as above. The procedure: as §3, §1
In experiment [15] the target is T7, FcgRIIIaF. Described as above. As to the method:
as §3, §1

The target in experiment [16] is T8, FcgRIIIaV. Described as above. The procedure:
as §3, §1

In the next experiment the target is T9, FcgRIa (human, UniProt P12314 16-292).
T9 construct: extracellular domain; also called FcγRIa; FcγRI; not shown: C-terminal His tag
T9 sequence (P12314 16-292): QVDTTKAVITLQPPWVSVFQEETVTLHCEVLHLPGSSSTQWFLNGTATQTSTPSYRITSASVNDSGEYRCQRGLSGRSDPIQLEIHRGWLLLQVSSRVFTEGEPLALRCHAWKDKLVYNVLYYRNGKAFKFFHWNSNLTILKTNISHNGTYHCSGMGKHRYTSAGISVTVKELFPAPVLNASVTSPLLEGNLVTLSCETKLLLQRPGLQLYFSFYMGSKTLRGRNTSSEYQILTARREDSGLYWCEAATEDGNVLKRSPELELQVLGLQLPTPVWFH
As to the kind of experiment: SPR (Biacore 4000), antibody captured on chip, FcgR as analyte; kd below the limit 5e-5 /s. As to the method: as §3, §1

Experimental findings from US20180155451A1 (published 2018) are described below.

Read-outs that look alike come from different tables or passages of the source. Bounds are passed on as bounds.

T8 sequence (P08637 17-208 F176V limits assumed): as the sequence (P08637 17-208 F176V) above
T7 sequence (P08637 17-208): as the sequence (P08637 17-208 F176V) above, with V160F counted along it

B1: IL6R-BP208/IL6R-L (antibody, human IgG1, kappa)
heavy: QVQLQESGPGLVKPSETLSLTCAVSGHSISHDHAWSWVRQPPGEGLEWIGFISYSGITNYNPSLQGRVTISRDNSKNTLYLQMNSLRAEDTAVYYCARSLARTTAMDYWGEGTLVTVSSASTKGPSVFPLAPSSKSTSGGTAALGCLVKDYFPEPVTVSWNSGALTSGVHTFPAVLQSSGLYSLSSVVTVPSSSLGTQTYICNVNHKPSNTKVDKKVEPKSCDKTHTCPPCPAPDLLGDDSVFLFPPKPKDTLMISRTPEVTCVVVDVSDEDGEVKFNWYVDGVEVHNAKTKPREEQYNSTYRVVSVLTVLHQDWLNGKEYKCKVSNKALPRPIEKTISKAKGQPREPQVYTLPPSRDELTKNQVSLTCLVKGFYPSDIAVEWESNGQPENNYKTTPPVLDSDGSFFLYSKLTVDKSRWQQGNVFSCSVMHEALHNHYTQESLSLSP
light: not shown
notes: Homodimer; IL6R-BP208 is IL6R-B3 with E233D, G237D, P238D, H268D, P271G and A330R
By Kd is commonly meant the concentration at which binding is half-saturated. A lower Kd goes with higher affinity. Take B1: the Kd in experiment [1] amounted to 850 nM; in [2], 850 nM; in [3], 8300 nM; in [4], 53000 nM; in [5], 8300 nM; in experiment [6], 53000 nM.

B2: H240-Kn120/H240-Hl073/L73-k0 (antibody, human IgG1, kappa)
heavy 1: QDQLVQSGAEVKKPGASVKVSCKASGFNIKDTYIQWVRQAPGQGLEWMGRIDPLRKQTKYREKFEGRVTITADTSTNTAYMELSSLRSEDTAVYYCVRSGREFDYWGQGTLVTVSSASTKGPSVFPLAPSSKSTSGGTAALGCLVKDYFPEPVTVSWNSGALTSGVHTFPAVLQSSGLYSLSSVVTVPSSSLGTQTYICNVNHKPSNTKVDKKVEPKSCDKTHTCPPCPAPEYYWGPMVFLFPPKPKDTLMISRTPEVTCVVVDVSDEDPEVKFNWYVDGVEVHNAKTKPREEQYNATYRVVSVLTVLHQDWLNGKEYKCKVSNKDLPAPIEKTISKAKGQPREPQVCTLPPSRDELTKNQVSLWCLVKGFYPSDIAVEWESNGQPENNYKTTPPVLDSDGSFFLYSKLTVDKSRWQQGNVFSCSVMHEALHNHYTQKSLSLSP
heavy 2: QDQLVQSGAEVKKPGASVKVSCKASGFNIKDTYIQWVRQAPGQGLEWMGRIDPLRKQTKYREKFEGRVTITADTSTNTAYMELSSLRSEDTAVYYCVRSGREFDYWGQGTLVTVSSASTKGPSVFPLAPSSKSTSGGTAALGCLVKDYFPEPVTVSWNSGALTSGVHTFPAVLQSSGLYSLSSVVTVPSSSLGTQTYICNVNHKPSNTKVDKKVEPKSCDKTHTCPPCPAPELLSGPSVFLFPPKPKDTLMISRTPEVTCVVVDVSHEEPEVKFNWYVDGVEVHNAKTKPREEQYNSTYRVVSVLTVLHQDWLNGKEYKCKVSNDALPKPIEETISKAKGQPREPQVYTLPPSRCELTKNQVSLSCAVKGFYPSDIAVEWESNGQPENNYKTTPPVLDSDGSFFLVSKLTVDKSRWQQGNVFSCSVMHEALHNHYTQKSLSLSP
light: DIQMTQSPSSLSASVGDRVTITCRASQDIHKYIAWYQQKPGQAPRLLIQYTSTLQPGVPSRFSGSGSGTDYTFTISSLQPEDIATYYCLQYEQLRTFGGGTKVEIKRTVAAPSVFIFPPSDEQLKSGTASVVCLLNNFYPREAKVQWKVDNALQSGNSQESVTEQDSKDSTYSLSSTLTLSKADYEKHKVYACEVTHQGLSSPVTKSFNRGEC
notes: Heterodimerized anti-epiregulin antibody; G236S in the Hl068 chain; also called H240-Kn120/H240-HI073/L73-k0
On to B2, for which the equilibrium dissociation constant (Kd) is 15 nM with FcgRIIaR [7]; 21 nM in the experiment with FcgRIIaH [8]; 210 nM with FcgRIIb [9]; 8.2 nM in the experiment with FcgRIIIaF [10]; 1.8 nM with FcgRIIIaV [11]; below 0.028 nM with FcgRIa. Also, the “Relative KD” value in the experiment with FcgRIIaR [12] is 1.3; with FcgRIIaH [13] it was 2; with FcgRIIb [14], 0.7; with FcgRIIIaF [15] it was 0.3; in the experiment with FcgRIIIaV [16], 0.2.
